For this assay, the target named is T1, PEA-15 S104D/S116D double mutant (PEA-15DD) (UniProt Q15121 1-130, S104D | S116D).
T1 construct: PEA-15 (phosphoprotein enriched in astrocytes, 15 kDa), full length, with the phosphomimetic mutations S104D and S116D; Made by site-directed mutagenesis of the PEA-15 plasmid (pET-28b); expressed and purified as the wild type
Description: NMR titration; data not shown: spectra of uniformly labeled PEA-15DD with unlabeled FADD at molar ratios 1:0.5, 1:1 and 1:2; 20 mM sodium phosphate pH 7.0, 150 mM NaCl, 1 mM DTT. The note with it: both partners purified.

T1 sequence (Q15121 whole entry S104D/S116D): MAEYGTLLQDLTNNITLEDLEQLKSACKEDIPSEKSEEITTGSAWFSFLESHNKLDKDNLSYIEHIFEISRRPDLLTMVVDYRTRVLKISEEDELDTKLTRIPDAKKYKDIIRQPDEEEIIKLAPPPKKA

B1: Fas-associated death domain (FADD) protein, full length (natural protein, UniProt Q13158 1-208, looked up)
chain: MDPFLVLLHSVSSSLSSSELTELKFLCLGRVGKRKLERVQSGLDLFSMLLEQNDLEPGHTELLRELLASLRRHDLLRRVDDFEAGAAAGAAPGEEDLCAAFNVICDNVGKDWRRLARQLKVSDTKIDSIEDRYPRNLTERVRESLRIWKNTEKENATVAHLVGALRSCQMNLVADLVQEVQQARDLQNRSGAMSPMSWNSDASTSEAS
notes: FADD (Fas-associated death domain protein), full length; Cloned into pET-28b between NdeI and BamHI
One may read the stoichiometry N as a count of units in the complex or per binding partner. On to B1, for which the “stoichiometry N” value was found to be 1.

The record behind these values is PMC6651876, “PEA-15 C-Terminal Tail Allosterically Modulates Death-Effector Domain Conformation and Facilitates Protein–Protein Interactions” (International Journal of Molecular Sciences, 2019).
